Consider three molecules from patent US20110318348A1 (NATIONAL RESEARCH COUNCIL OF CANADA, published 2011).

The target in assay [1] is T1, bovine serum albumin (bovine, UniProt P02769 25-607).
T1 construct: also called BSA
The experiment in a line: SPR (Biacore 3000), BSA immobilized on CM5; estimated, no 1:1 fit.
Experimental: (§1) 1700 RUs of BSA (Sigma) were immobilized on research grade CM5-sensorchip (BIACORE). Ethanolamine blocked surface was used as a reference. Immobilizations were carried out at the protein concentrations of 50 μg/ml in 10 mM acetate pH4.5 using amine coupling kit supplied by the manufacturer. Antibodies were passed through Superdex 75 (GE Healthcare) column to separate monomer prior to BIACORE analysis.
(§2) In all instances, analyses were carried out at 25° C. in HBS-E buffer (10 mM HEPES, 150 mM NaCl and 3 mM EDTA, pH7.4) supplemented with 0.005% surfactant P20 at a flow rate of 20 ul/min. The surfaces were regenerated with 100 mM HCl (3 seconds). Data were analyzed with BIAevaluation 4.1 software.

The target in assay [2] is T1, bovine serum albumin. In words: SPR (Biacore 3000), BSA immobilized on CM5; profiles did not fit a 1:1 model.
Experimental: as §1, §2
Assay [3] has as its target T1, bovine serum albumin. The experiment in a line: SPR (Biacore 3000), BSA immobilized on CM5, 1:1 model; SE 2.2 × 10^4 in r14c3. (In SPR one partner is held on a chip, and binding of the other changes the refractive index at the surface.)
Experimental: as §1, §2
For assay [4], the target named is T1, bovine serum albumin. In words: SPR (Biacore 3000), BSA immobilized on CM5, 1:1 model; SE 1.1 × 10^-8 in r14c5.
Experimental: as §1, §2
Assay [5] concerns the target T1, bovine serum albumin. The experiment in a line: SPR (Biacore 3000), BSA immobilized on CM5, 1:1 model; SE 5.4 × 10^-3 in r14c4.
Experimental: as §1, §2
Assay [6] deals with T1, bovine serum albumin. The experiment in a line: SPR (Biacore 3000), BSA immobilized on CM5.
The target of assay [7] is T1, bovine serum albumin. The experiment in a line: SPR (Biacore 3000), BSA immobilized on CM5, extended dissociation.
Assay [8] has as its target T1, bovine serum albumin. The experiment in a line: SPR (Biacore 3000), BSA immobilized on CM5, calculated from ka and kd.
The target of assay [9] is T1, bovine serum albumin. In words: SPR (Biacore 3000), BSA immobilized on CM5, 1:1 model; SE 3.2 × 10^3 in r12c3.
Assay [10] concerns the target T1, bovine serum albumin. In words: SPR (Biacore 3000), BSA immobilized on CM5, 4 h dissociation time; SE 3 × 10^-8 in r12c4.

T1 sequence (P02769 25-607 limits assumed): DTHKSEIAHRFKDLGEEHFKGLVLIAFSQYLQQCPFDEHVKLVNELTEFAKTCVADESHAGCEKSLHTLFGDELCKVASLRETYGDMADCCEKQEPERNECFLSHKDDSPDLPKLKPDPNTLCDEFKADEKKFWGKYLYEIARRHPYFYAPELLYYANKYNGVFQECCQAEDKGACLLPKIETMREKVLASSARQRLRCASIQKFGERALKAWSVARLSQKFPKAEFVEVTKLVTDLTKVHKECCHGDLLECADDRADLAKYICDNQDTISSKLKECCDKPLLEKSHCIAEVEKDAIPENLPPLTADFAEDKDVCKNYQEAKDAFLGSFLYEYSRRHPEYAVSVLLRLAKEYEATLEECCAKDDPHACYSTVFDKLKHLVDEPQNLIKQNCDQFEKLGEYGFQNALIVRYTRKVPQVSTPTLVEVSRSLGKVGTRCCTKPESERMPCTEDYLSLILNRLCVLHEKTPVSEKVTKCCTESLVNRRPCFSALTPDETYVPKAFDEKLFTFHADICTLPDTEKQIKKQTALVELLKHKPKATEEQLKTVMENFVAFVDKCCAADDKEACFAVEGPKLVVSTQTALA

B1: sdAb BSA8 (VHH)
VHH: QVKLEESGGGLAQAGGSLRLSCAASERTFIRYTIGWFRQAPGKEREFVGRVNWSGGDTYYADSVKGRFTISRDNAKTTVTLQMSSLKPEDTAVYSCAASPKWSEIPREYIYWGPGTQVTVSS
For the molecule B1, the Kd (usually the constant that tells how readily two partners part at equilibrium) with bovine serum albumin [1] was about 100 nM. For the same molecule, the dissociation rate constant (koff) (usually the first-order rate constant of dissociation) with bovine serum albumin [2] worked out at 0.005 s⁻¹.

B2: sdAb BSA16 (VHH)
VHH: QVKLEESGGGLVQAGGSLRLSCAPSGRTFRTWRMGWFRQAPGKEREFVAAINLNTGNTYYVDSVKGRFTISGDYAKNTLYLQMNSLKPEDTAVYFCAARSPDSDYVPLSSIDYQYWGQGTQVTVSS
For the molecule B2, the kon (commonly the second-order rate constant of association) with bovine serum albumin [3] stood at 1e+06 M⁻¹ s⁻¹. Moreover, the Kd with bovine serum albumin [4] amounted to 280 nM. Further, the koff with bovine serum albumin [5] was found to be 0.27 s⁻¹.

B3: sdAb BSA12 (VHH, part only)
VHH: QVKLEESGGGLVQVGDSLRLSCAASGRTFSNYTMAWFRQFPGKEREFVAVVSRGGGATDYADSVKGRFTISRDNAKNTMYLQMNSLKTDTAVYYCAAGTDLSYYYSTKKWAYWGQGTQVTVSS
modifications: c-Myc and 6xHis tags
Molecule B3 registered a binding capacity (RU) with bovine serum albumin [6] of 150 RU. For the same molecule, the koff in the assay with bovine serum albumin [7] was found to be 1e-05 s⁻¹; with bovine serum albumin [10], 9e-06 s⁻¹. Further, the Kd with bovine serum albumin [8] is 0.004 nM. The molecule further yielded a kon with bovine serum albumin [9] of 2.5e+06 M⁻¹ s⁻¹.
